# Source: patent US20230348603A1 (VERSEAU THERAPEUTICS, published 2023)
# T1: Human VSIG4-L-His (human, UniProt Q9Y279 20-283)
# T1 construct: long isoform ECD with His tag; also called hVSIG4-L
# T1 sequence: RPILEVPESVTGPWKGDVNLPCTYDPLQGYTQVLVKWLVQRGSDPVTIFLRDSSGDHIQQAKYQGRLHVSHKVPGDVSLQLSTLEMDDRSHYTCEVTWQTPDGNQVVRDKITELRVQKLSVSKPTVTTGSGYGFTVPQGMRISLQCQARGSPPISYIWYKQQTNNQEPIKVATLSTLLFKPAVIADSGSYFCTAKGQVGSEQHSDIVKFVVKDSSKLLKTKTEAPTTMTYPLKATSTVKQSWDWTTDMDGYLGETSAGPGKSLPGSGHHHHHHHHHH
# T2: Mouse VSIG4-His (mouse)
# T2 construct: ECD with His tag; also called mVSIG4
# T2 chain: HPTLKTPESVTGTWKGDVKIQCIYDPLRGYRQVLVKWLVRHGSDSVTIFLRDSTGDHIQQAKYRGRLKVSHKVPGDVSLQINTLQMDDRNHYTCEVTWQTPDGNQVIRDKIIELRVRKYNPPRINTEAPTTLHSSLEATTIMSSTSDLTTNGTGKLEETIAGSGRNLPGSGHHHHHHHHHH
# T3: Human VSIG4-S-His (human, UniProt Q9Y279 20-283)
# T3 construct: short isoform ECD with His tag; also called hVSIG4-S; VISG4-S-His
# T3 sequence: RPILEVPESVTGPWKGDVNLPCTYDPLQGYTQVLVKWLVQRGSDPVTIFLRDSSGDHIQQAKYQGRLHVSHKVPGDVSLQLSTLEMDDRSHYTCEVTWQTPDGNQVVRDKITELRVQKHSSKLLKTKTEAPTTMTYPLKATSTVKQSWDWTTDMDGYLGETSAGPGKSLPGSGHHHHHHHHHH
# T4: Human VSIG4-L-CHO (human VSIG4 long isoform on CHO-K1 cells) (human, UniProt Q9Y279 20-399)
# T4 construct: also called hVSIG4-L (flow cytometry)
# T4 sequence: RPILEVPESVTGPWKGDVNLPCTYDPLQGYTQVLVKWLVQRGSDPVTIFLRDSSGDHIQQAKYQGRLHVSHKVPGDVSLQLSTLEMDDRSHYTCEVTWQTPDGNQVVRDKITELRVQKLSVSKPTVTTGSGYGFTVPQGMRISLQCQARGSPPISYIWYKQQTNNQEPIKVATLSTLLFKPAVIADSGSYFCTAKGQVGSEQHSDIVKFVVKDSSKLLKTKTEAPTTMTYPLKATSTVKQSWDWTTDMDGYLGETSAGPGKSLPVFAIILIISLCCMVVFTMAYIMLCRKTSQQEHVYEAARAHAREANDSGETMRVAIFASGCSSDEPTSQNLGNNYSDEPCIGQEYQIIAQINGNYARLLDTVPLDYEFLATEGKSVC
# T5: Cynomolgus Monkey VSIG4-L-His (cynomolgus monkey)
# T5 construct: ECD with His tag; also called cyVSIG4-L; cyno VSIG4-L-His
# T5 chain: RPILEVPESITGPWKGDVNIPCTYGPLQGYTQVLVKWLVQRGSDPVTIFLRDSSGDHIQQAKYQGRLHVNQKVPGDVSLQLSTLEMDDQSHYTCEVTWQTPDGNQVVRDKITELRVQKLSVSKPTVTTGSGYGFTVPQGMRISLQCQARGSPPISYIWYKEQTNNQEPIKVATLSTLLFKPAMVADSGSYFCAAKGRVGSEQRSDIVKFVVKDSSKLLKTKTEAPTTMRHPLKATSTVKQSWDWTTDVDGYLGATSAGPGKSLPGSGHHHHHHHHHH
# B1: 15C03 mouse/human chimeric IgG4 (S228P) kappa (antibody, V domains shown)
# VH: EVKLLESGPGLVKPSQSLSLTCTVTGYSITSDYAWNWIRQFPGNKLEWMGYISYSGSTRYNPSLKSRISITRDTSNNQFFLQLNSVTTEDTATYYCARSGYAAMDYWGQGTSVTVSS
# VL: ENVLTQSPAIMSASPGEKVTMTCRASSSVSSSYLHWYQQKSGASPKLWIYSTSNLASGVPARFSGSGSGTSYSLTISSVEAEDAATYYCQQYSGYPLTFGSGTKLEIKR
# B2: 16E03 mouse/human chimeric IgG4 (S228P) kappa (antibody, V domains shown)
# VH: QVQLQQSGAELARPGASVKMSCKASGYTFTSYTMHWIKQRPGQGLEWIGYINPSSGHTYYNQKFKDKATLTPDKSSSTAYMQLTSLTSEDSAVYYCARRIPTAYAMDYWGQGTSVTVSS
# VL: EIQMTQSHKFMSTSVGDRVSITCKASQDVGTAVAWYQQKPGQSPKLLIYWASTRHTGVPDRFTGSGSGTDFTLTISNVQSEDLADYFCQQYSSYPLTFGAGTKLELKR
# How the values were obtained:
# Human VSIG4-L-His [1] = target: T1, Human VSIG4-L-His; test: SPR (FJB)
# Human VSIG4-L-Fc [2] = target: T6, Human VSIG4-L-Fc (human); test: ligand blocking of C3b, IgG
# T6 construct: also called hVSIG4-L-Fc; hVSIG4-L
# Target sequence in this assay (chain, as listed by the source limits assumed): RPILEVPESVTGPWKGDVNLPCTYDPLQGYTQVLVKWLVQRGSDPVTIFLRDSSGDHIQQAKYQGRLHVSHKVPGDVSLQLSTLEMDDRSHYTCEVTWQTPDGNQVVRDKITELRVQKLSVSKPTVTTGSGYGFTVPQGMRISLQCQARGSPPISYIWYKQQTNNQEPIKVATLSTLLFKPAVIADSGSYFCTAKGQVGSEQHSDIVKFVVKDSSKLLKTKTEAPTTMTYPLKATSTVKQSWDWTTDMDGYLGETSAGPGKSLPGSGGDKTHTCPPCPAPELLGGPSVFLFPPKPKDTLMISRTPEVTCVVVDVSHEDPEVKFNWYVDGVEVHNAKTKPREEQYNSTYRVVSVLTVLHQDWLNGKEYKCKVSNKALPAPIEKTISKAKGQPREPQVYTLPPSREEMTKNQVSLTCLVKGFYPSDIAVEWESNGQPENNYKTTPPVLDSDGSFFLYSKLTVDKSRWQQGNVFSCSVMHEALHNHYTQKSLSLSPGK
# Human VSIG4-L-Fc [3] = target: T6, Human VSIG4-L-Fc; test: ligand blocking of iC3b, IgG
# Human VSIG4-L-Fc [4] = target: T6, Human VSIG4-L-Fc; test: ELISA, IgG 50 nM on coated antigen;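 note: Mouse-human chimeric IgG4 antibodies incubated 1 h on plate-coated VSIG4 proteins, bound IgG detected with HRP-labelled anti-human IgG, irrelevant antibody and protein as specificity controls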
# Method: (§1) The binding characteristics of selected antibodies identified in the phage display selections and reformatted as mouse-human chimeric IgG4 antibodies was assessed by ELISA for their ability to bind plate-bound human VSIG4-L, human VSIG4-S, cynomolgus monkey VSIG4, and mouse VSIG4 (Table 7). Antibodies were also assessed by ELISA for specificity to human VSIG4 compared to related VSIG4 B7 family members, including human B7-H1, B7-H2, B7-H3, B7-H4, B7-DC, B7-1, and B7-2 (Table 8).
# (§2) Coated microplates were blocked with dried skimmed milk at 4% in PBS. Coated proteins were then incubated with each purified antibody at a concentration of 50 nM for 1 h to allow the binding to the proteins. Binding detection was measured using a goat anti-huIgG monoclonal detection antibody, HRP conjugated (Jackson Immune Research, West Gove, PA). As a control for specificity, an irrelevant antibody and protein were used. OD at 450 nm was determined using a standard absorbance microplate reader.
# Human VSIG4-S-Fc = target: T7, Human VSIG4-S-Fc (human); test: ELISA, IgG 50 nM on coated antigen;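 note: Mouse-human chimeric IgG4 antibodies incubated 1 h on plate-coated VSIG4 proteins, bound IgG detected with HRP-labelled anti-human IgG, irrelevant antibody and protein as specificity controls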
# T7 construct: short isoform ECD fused to human Fc1; also called hVSIG4-S
# T7 sequence (chain, as listed by the source limits assumed): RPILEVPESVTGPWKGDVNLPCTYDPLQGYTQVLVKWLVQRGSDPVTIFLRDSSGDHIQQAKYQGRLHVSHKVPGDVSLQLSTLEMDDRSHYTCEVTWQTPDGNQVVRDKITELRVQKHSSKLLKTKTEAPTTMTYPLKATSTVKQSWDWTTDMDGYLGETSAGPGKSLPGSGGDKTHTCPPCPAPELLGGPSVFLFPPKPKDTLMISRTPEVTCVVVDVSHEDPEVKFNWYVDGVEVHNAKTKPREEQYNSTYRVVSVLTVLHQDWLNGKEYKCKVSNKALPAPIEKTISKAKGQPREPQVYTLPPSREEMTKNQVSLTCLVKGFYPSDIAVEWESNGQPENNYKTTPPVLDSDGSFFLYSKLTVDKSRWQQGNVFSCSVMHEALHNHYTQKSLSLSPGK
# Method: as §1, §2
# Mouse VSIG4-His = target: T2, Mouse VSIG4-His; test: ELISA, IgG 50 nM on coated antigen;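 note: Mouse-human chimeric IgG4 antibodies incubated 1 h on plate-coated VSIG4 proteins, bound IgG detected with HRP-labelled anti-human IgG, irrelevant antibody and protein as specificity controls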
# Method: as §1, §2
# Human VSIG4-L-His [5] = target: T1, Human VSIG4-L-His; test: BLI (Octet), IgG on AHC sensor, antigen 100 nM
# Human VSIG4-S-His = target: T3, Human VSIG4-S-His; test: BLI (Octet), IgG on AHC sensor, antigen 100 nM
# [6] = target: T4, Human VSIG4-L-CHO (human VSIG4 long …); test: flow cytometry, CHO-K1 cells expressing hVSIG4-L
# Method: Three-fold serial dilution of each antibody starting at 200 nM were prepared in assay buffer (0.5% of heat inactivated Fetal bovine serum with 1:1000 Ethylenediaminetetraacetic acid in PBS). […] As a control for specificity, an irrelevant antibody was used. Binding detection was assessed using a goat anti-Human IgG (Fc specific), FITC conjugated polyclonal detection antibody (Sigma Aldrich, St. Louis, MO) and by acquisition of 10,000 cells per sample. Fluorescence was measured on an Attune™ NxT (Thermo Fisher Scientific, Waltham, MA).
# Human VSIG4-L-Fc [7] = target: T6, Human VSIG4-L-Fc; test: BLI binning on hVSIG4-L-Fc, competitor 12A08 first;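 note: normalized to binding of second antibody without first competitor antibody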
# Human VSIG4-L-Fc [8] = target: T6, Human VSIG4-L-Fc; test: BLI binning on hVSIG4-L-Fc, competitor 12A12 first;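 note: normalized to binding of second antibody without first competitor antibody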
# Human VSIG4-L-Fc [9] = target: T6, Human VSIG4-L-Fc; test: BLI binning on hVSIG4-L-Fc, competitor 13H11 first;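 note: normalized to binding of second antibody without first competitor antibody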
# Method: (§3) Epitopic diversity of functional antibodies was further assessed by antibody cross-blocking experiments, performed on a ForteBio Octet® Red384 system. […] All assay steps occurred at 30° C. with an acquisition rate of 5.0 Hz.
# (§4) Binning results were calculated using ForteBio Data Analysis HT software. Antibody “a” and antibody “b” steps were defined, and the maximum binding calculation was averaged at the last 10% of the step duration. Once the matrix was generated, the antibody “b” binding signal in the absence of any antibody “a” was used to normalize the maximum binding of the competitor antibodies. Hierarchical clustering was set with a similarity metric of Pearson and Lingang Criteria by Mean, and the normalized maximum binding nm shift is reported in Table 9 below.
# Human VSIG4-L-Fc [10] = target: T6, Human VSIG4-L-Fc; test: BLI binning on hVSIG4-L-Fc, competitor 14C05 first;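 note: normalized to binding of second antibody without first competitor antibody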
# Method: as §3, §4
# Human VSIG4-L-Fc [11] = target: T6, Human VSIG4-L-Fc; test: BLI binning on hVSIG4-L-Fc, competitor 14D12 first;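 note: normalized to binding of second antibody without first competitor antibody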
# Human VSIG4-L-Fc [12] = target: T6, Human VSIG4-L-Fc; test: BLI binning on hVSIG4-L-Fc, competitor 15A06 first;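 note: normalized to binding of second antibody without first competitor antibody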
# Method: as §3, §4
# Human VSIG4-L-Fc [13] = target: T6, Human VSIG4-L-Fc; test: BLI binning on hVSIG4-L-Fc, competitor 15C03 first;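 note: normalized to binding of second antibody without first competitor antibody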
# Human VSIG4-L-Fc [14] = target: T6, Human VSIG4-L-Fc; test: BLI binning on hVSIG4-L-Fc, competitor 15C04 first;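 note: normalized to binding of second antibody without first competitor antibody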
# Human VSIG4-L-Fc [15] = target: T6, Human VSIG4-L-Fc; test: BLI binning on hVSIG4-L-Fc, competitor 16E03 first;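 note: normalized to binding of second antibody without first competitor antibody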
# Method: as §3, §4
# Human VSIG4-L-Fc [16] = target: T6, Human VSIG4-L-Fc; test: BLI binning on hVSIG4-L-Fc, competitor 16E10 first;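 note: normalized to binding of second antibody without first competitor antibody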
# Method: as §3, §4
# Human VSIG4-L-Fc [17] = target: T6, Human VSIG4-L-Fc; test: ligand competition ELISA (FJB), blocked ligand C3b
# Human VSIG4-L-Fc [18] = target: T6, Human VSIG4-L-Fc; test: ligand competition ELISA (FJB), blocked ligand iC3b
# [19] = target: T4, Human VSIG4-L-CHO (human VSIG4 long …); test: flow cytometry (FJB), 200 nM mAb, huVSIG4-L CHO-K1 cells
# [20] = target: T4, Human VSIG4-L-CHO (human VSIG4 long …); test: flow cytometry (FJB), 200 nM mAb, huVSIG4-L CHO-K1 over parental CHO-K1
# [21] = target: T5, Cynomolgus Monkey VSIG4-L-His; test: ELISA, IgG 50 nM on coated antigen; ELISA, bivalent IgG on plate-coated cyVSIG4-L (avid format)
# Method: as §2
# Human VSIG4-L-Fc [22] = target: T6, Human VSIG4-L-Fc; test: ligand competition ELISA (FJB), blocked ligand C3b, 200 nM mAb
# Human VSIG4-L-Fc [23] = target: T6, Human VSIG4-L-Fc; test: ligand competition ELISA (FJB), blocked ligand iC3b, 200 nM mAb
binder,measurement,setting,value
B1,Kd,Human VSIG4-L-His [1],17.9 nM
same,Percent Blocking C3b,Human VSIG4-L-Fc [2],90%
same,Percent Blocking iC3b,Human VSIG4-L-Fc [3],90%
same,ELISA OD450,Human VSIG4-L-Fc [4],4.4 OD450
same,ELISA OD450,Human VSIG4-S-Fc,3.64 OD450
same,ELISA OD450,Mouse VSIG4-His,0.057 OD450
same,Kd,Human VSIG4-L-His [5],32.1 nM
same,Kd,Human VSIG4-S-His,18.6 nM
same,EC50,[6],2.3 nM
same,normalized maximum binding nm shift,Human VSIG4-L-Fc [7],0.8 normalized
same,normalized maximum binding nm shift,Human VSIG4-L-Fc [8],0.76 normalized
same,normalized maximum binding nm shift,Human VSIG4-L-Fc [9],0.74 normalized
same,normalized maximum binding nm shift,Human VSIG4-L-Fc [10],0.44 normalized
same,normalized maximum binding nm shift,Human VSIG4-L-Fc [11],0.41 normalized
same,normalized maximum binding nm shift,Human VSIG4-L-Fc [12],0.82 normalized
same,normalized maximum binding nm shift,Human VSIG4-L-Fc [13],0.15 normalized
same,normalized maximum binding nm shift,Human VSIG4-L-Fc [14],0.89 normalized
same,normalized maximum binding nm shift,Human VSIG4-L-Fc [15],0.13 normalized
same,normalized maximum binding nm shift,Human VSIG4-L-Fc [16],0.93 normalized
same,IC50,Human VSIG4-L-Fc [17],2.4 nM
same,IC50,Human VSIG4-L-Fc [18],12.8 nM
same,Binding (200 nM) MFI,[19],48900 MFI
same,Binding (200 nM) Fold-Over-Parental,[20],83 fold
same,ELISA OD450,[21],4.5 OD450
B2,Kd,Human VSIG4-L-His [1],29.7 nM
same,ELISA OD450,Human VSIG4-L-Fc [4],4.5 OD450
same,ELISA OD450,Human VSIG4-S-Fc,4.13 OD450
same,ELISA OD450,Mouse VSIG4-His,0.054 OD450
same,Kd,Human VSIG4-L-His [5],49.3 nM
same,Kd,Human VSIG4-S-His,49.3 nM
same,EC50,[6],1 nM
same,normalized maximum binding nm shift,Human VSIG4-L-Fc [7],0.13 normalized
same,normalized maximum binding nm shift,Human VSIG4-L-Fc [8],0.9 normalized
same,normalized maximum binding nm shift,Human VSIG4-L-Fc [9],0.76 normalized
same,normalized maximum binding nm shift,Human VSIG4-L-Fc [10],0.78 normalized
same,normalized maximum binding nm shift,Human VSIG4-L-Fc [11],0.79 normalized
same,normalized maximum binding nm shift,Human VSIG4-L-Fc [12],0.83 normalized
same,normalized maximum binding nm shift,Human VSIG4-L-Fc [13],0.1 normalized
same,normalized maximum binding nm shift,Human VSIG4-L-Fc [14],0.86 normalized
same,normalized maximum binding nm shift,Human VSIG4-L-Fc [15],0.04 normalized
same,normalized maximum binding nm shift,Human VSIG4-L-Fc [16],0.37 normalized
same,Binding (200 nM) MFI,[19],30400 MFI
same,% Block C3b (200 nM mAb),Human VSIG4-L-Fc [22],-192%
same,% Block iC3b (200 nM mAb),Human VSIG4-L-Fc [23],-3%
same,Binding (200 nM) Fold-Over-Parental,[20],23 fold
same,ELISA OD450,[21],4.36 OD450
